Data taken from the nanobody polyreactivity screen of Harvey et al. (2022).

Experiment: yeast display, Sf9 membrane polyspecificity reagent, FACS + sequencing; frameworks hold sequencing errors
How it was run: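 Using colony PCR, genes from sorted yeast display clones were amplified, then sequenced on MiSeq at 2 × 250 and filtered by CDR length. The clones had been stained with 10% biotinylated, detergent-solubilized Sf9 membrane reagent for 1 hour at 4 °C and sorted by FACS into low and high (top ~1%) gates on anti-HA and streptavidin fluorescence. Polyreactivity labels come from the gate of origin.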

Sequence	polyreactivity (PSR sort gate)
QVQLVESGGGLVQAGGSLRLSCAASGSTIYYYAMGWYRQAPGKERELVASISDDGSTNYADSVKGRFTISRDNAKNTVYLQMNSLKPEDTAVYYCAAVWWHQFGSAWYQMGYWGQGTQVTVSS	low polyreactivity
QVQLVESGGGLVQAGGSLRLSCAASGSIFYVYVMGWYRQAPGKERELVAGISYRGGSTYYADSVKGRFTISRDNAKNTVYLQMNSLKPEDTAVYYCNAGVWTYWHIEMDYWGQGTQVTVSS	low polyreactivity
QVQLLESGGGLVQAGGSLRLSCAASGFTFLSNVMGRYRQAPGKERELVAGINFSGDGTYYADSVKGRFTISRDNAKNTVYLQMNSLKPEDTAVYYCAGDVEYYRDVPQQVYVSDDYWGQGTQVTVSS	low polyreactivity
QVQLVESVGGLVQAGGSLRLSCAASGSTLDGNPMGWYRQAPGKERELVAAISRSGTSTYYADSVKGRFTISRDNAKNTVYLQMNSLKPEDTAVYYCNKVGYIAFDYWGQGTQVTVSS	low polyreactivity
QVQLVESGGGLVQAGGSLLLSCAASGSTLDPNVMGWYRPAPGKERELVAAITSGGSTYYADSVKGRFTISRDNAKNTVYLQMNSLKPEDTAVYYCNKDKGWLAHSRIWLWYDYWGQGTQVTVSS	low polyreactivity
QVQLVESGGGLVQAGGSLRLSCAASGRTFRYYVMGWYRPATGTERELVAGISGSGGNTYYADSVKGRFTISRDNAKNTVYLQMNSLKPEDTAVYYCNAYSPYAEYDYWGQGTQVTVSS	high polyreactivity
QVQLVESGGGLVQAGGSLRLSCAASGSIFKYNDMGWYRQAPGKERELVAAISWRGGRTYYADSVKGRFTISRDNAKNTVYLQMNSLKPEDTAVYYCNVVLDNRRGTYSYYYWGQGTQVTVSS	high polyreactivity
QVQLVESGGGLVQAGGSLRLSCPASGIIFKGYAMGWYRQAPGKERELVAAISQSGGSTYYADSVKGRFTISRDNAKNTVYLQMNSLKPEDTAVYYCNARYSRVVPRYYYWGQGTQVTVSS	high polyreactivity
QVQLVESGGGLVQAGGSLRLSCAASGYTFSRYAMGWYRQAPGKERELVAAITGRGGSTYYADSVKGRFTISRDNAKNTVYLQMNSLKPEDTAVYYCAAPFGWRPLPISKVTSDYWGQGTQVTVSS	high polyreactivity
QVQLVESGGGLVQAGGSLRLSCAASGRIFYAYAMGWYRQAPGKERELVATITGIGGSTYADSVKGRFTISRDNAKNTVYLQMNSLKPEDTAVYYCNAAKWLTSGGLDYWGQGTQVTVSS	high polyreactivity
QVQLVQSFGGLVQAGGSLRLSCAASGRIFWPYAMGWYRQPPGKERELVAAITGSGSRTYYADSVKGRFTISRDYAKNTVYLHMNSLNREDTAVYYCAATSSTDYDYWGQGTQVTVSS	low polyreactivity
QVQLEESGGGLVQAGGSLRLSCAASGRIFIKNAMGWYRQAPGKVRELVAAISARGGSTYYADSVKGRFTISRDIAKNTVYLEMNSLKPEDTAVYDCAVDVYEPRYRRPLHHDYWGQGTQVTVSS	low polyreactivity
QVQLVESGGGLVQAGGSLRLSCAASGFIFTKNTMGWYRQAPGKEREWVAAISRGGSTYYADSVKGRFTISRDNAKNTVYLQMNSLKPEDTAVYYCAALYNSTKYGVYTNGPQAEYDYWGQGTQVTVSS	high polyreactivity
QVQLLESGGGLVQARGSLRLSCAASARTIFKNAMAWYRQAPGKERELVARISWNGGDSTYYADSVTGRFTISRDNAKNTVYLQMNSLKPEDTAVYSCAADTSYRPGGSRQGYGYWGQGTQVTVSS	low polyreactivity
QVQLVESGGGLVQAGGSLRLSCAASGRILFGYAMGWYRQAPGKERELVADITSTGSTNYADSVKGRFTISRDNAKNSVYLQMNSLKPEDTAVYYCNARRESYYQRYRVDYWGQGTQVTVSS	low polyreactivity
QVQLVESGGGLVHAGGSLRLSCAASGSIFRVYTMGWYRQAPGKERELVAAISRSGGRTYYADSVKGRFTISRDNAKNTVYLQMNSLKPEDTAVYYCATRPKVAYEYDYWGQGTQVTVSS	high polyreactivity
QVHLVESGGGLVQAGGSLRLICAASGSIFSAYALGWYRQAPGKERELVAAITWRGGSTYYADSVKGRFTISRDNAKNTVYLQMNSLKPEDTAVYYCAKYYYYLRSARKYDYWGQGTQVTVSS	high polyreactivity
QVQLVESGGGLVQAGGSLRLSCAASGLIFYRNAMGWYRQAPGKERELVAAISVSGGRTYYADSVKGRFTISRDNAKNTVYLQMNSLKPEDTAVYYCAAYGTTRMDYWGQGTQVTVSS	high polyreactivity
QVQLVESGGGLVQAGGSLRLSCAASGSTFHPYAMGRYRQAPGKERELVAAITWRVGSTYYADSVKGRFTISRDNAKNSVYLQMNSLKPEDTAVYYCAVSYLSTLGRSRYDYWGQGTQVTVSS	low polyreactivity
QVQLVESGGGLVQAGGSLRLSCAASGFIFASYAMGWYRQAPGKERELVAAISSSGGRTYYADSVKGRFTISRDNAKNTVYLQMNSLKPEDTAVYYCAAPRIYIPAEYYSWGQGTQVTVSS	high polyreactivity
QVQLVESGGGLVQAGGSLRLSCAASGFTFAYYAMGWYRQAPGKERELVAGISWRGGRTYYADSVKGRFTISRDNAKNTVYLQMNSLKPEDTAVYYCAKQPGNFGRFDYWGQGTQVTVSS	high polyreactivity
QVQLVESGGGLVQAGGSLRLSCAASGRTFSGYAMGWYRQAPGKERELVASITYSGGSTYYADSVKGRFTISRDNAKNTVYLQMNSLKPEDTAVYYCNARSSGKGRSNAYYKGHGYWGQGTQVTVSS	high polyreactivity

Sequence	polyreactivity (PSR sort gate)
QVQLVESGGCLVQAGGSLRLSCPASGSTIGKYAMGWYRQAPRKERELFATITVSGGNTNYADSVKGRITISRDNAKITVYLQMNSLKPEDTAVYYCAARKYVAGHKYIMKYWGQGTQVTVSS	low polyreactivity
QVQLVESGGGLVQAGGSLRLSCAASGSTFGHYVMGWYRQAPGKERELVAVISSSGGRTYYADSVKGRFTISRDNAKNTVYLQMNSLKPEDTAVYYCAAGSISTPGRGVDKPDPYDYWGQGTQVTVSS	low polyreactivity
QVQLVESGGGLVQAGGSLRLSCAASGFIFDTYAMGWYRQAHGKERELVAAIRWSGGRTYYGDSVKGRFTISRDNAKNTVYLQMNSMKPEDTAVYYCNVVVRYPYAYDYWGQGTQVTVSS	high polyreactivity
QVQLVESGGGLLQAGGSLRLSCAATGITFDRYAMGWYRQAPGKERELVAAITSGGRTYYADSVKGRFTISRDNAKNTVYLQMNSLKPEDTAVYYCNATRGQYVGRYYYWGQGTQVTVSS	high polyreactivity
QVQLVESGGGLVQAGGSLRLSCAASGRIFYSYAMGWYRQAPGKEREFVAVISSDGGSTYYADSVKGRFTISRDNAKNTVYLQMNSLKPEDTAVYYCNAEIDYDVYEYDYWGQGTQVTVSS	low polyreactivity
QVQLVESGGGLVQAGGSLRLSCAASGRTFGRYAMGWYRQATGKERELVAAISTGGRTYYADSVKGRFTISRDNAKNTVYLQMNSLKPEDTEVYYCNRVVVVGILEMGYWGQGTQVTVSS	low polyreactivity
QVQLVESVGGLDQAGVSLRLSCPASVRTLSKNSMGWYRQAPGKARELVATISSVGRTNYAVSVKGRFTISRDNAKNTVYLQMKSLKREDTAVYYCDARRFRGSYYWGLGTQVTVSS	high polyreactivity
QVQLVESGGGLVQAGGSLRLSCAASGRTFYVYAMGWYRQAPGKERELVATISRGGSTTYADSVKGRFTISRDNAKNTVYLQMNSLKPEDTAVYYCATELLGGRRTVAYYWGQGTQVTVSS	low polyreactivity
QVQLVESGGGLVQAGGSLRLSCAPSGRIFPRNAMGWYRQAPGKERELVAAITKSGGSTYYADSVKGRFTISRDNAKNTVYLQMNSLKPEDTAVYYCNAVQYRNYYWGQGTQVTVSS	high polyreactivity
QVQLQESGGGLVQPGGSLRLSCAASGYISSWYPMGWYPQAPGKEREFVATIAPGATTYYADSVKGRFTISRDYANNTVYLQMNSLKPEDTAVYYLAAGPENKDFYSYWCQGTQVTVSS	low polyreactivity
QVQVVESGGGLVQAGGSLRLSCAASGRTFGPYAMGWFRQAPGKEREFVAAISYSGGSTYYADSVKWRFTISRDNAKNTVYLQMNSLKPEDTAVYYCAAEGDYYDFISPPLDYWGQGTQVTVAS	low polyreactivity
QVQLVESGGGLVQAGGSLRLICAASGFIFWRYAMGWYRQAPGKERELVAAISRTSTSTYYADSVKGRFTISRDNAKNSVYLQMNSLKPEDTAVYYCAATFSTFYGYGYWGQGSQVTVSS	high polyreactivity
QVQLVESGGGLVQAGGSLRLSCAASGFIFYRNTMGWYRPAPGKEREFVAAIRWRGGSTYYADSVKGRFTISRDNAKNTVYVQMNSLKPEDTAGYYCAADTRPGYSGFEYWGQGTQVTVSS	high polyreactivity
QVQLVESGGGLVHAGGSLRLSCAASGRILVDYAMGWYRQAPGKERELVAAITSTGGTTYYADSVKGRFTISRDNAKNTVYLQMNSLKPEDTAVYYCAAKRQDSWGGTYGYWGQGTQVTVSS	low polyreactivity
QVQLVESGGGLVQAGGSLRLSCAASGSTFLGYTMGWYRQAPGKERELVAAISRRGSSTYYADSVKGRFTISRDNAKNTVYLQMNSLKPEDTAVYYCAAYATSFRDGYWGQGTQVTVSS	high polyreactivity
QVQLQESGGLVQAGGLRLSCAASGSVSYQEAMGWYRQSPGKERELVATISFGANTNYADSVKGRFTISRDNAKNTVYLQMNSLKPEDTAVYYCAAESLFDDYYGYWGQGTQVTVSS	low polyreactivity
QVQLEDSGGGLVQAGGSLLLSCPASGRIRYGMGWYRQAPGKERELVATITRGGSTNYADSVKGRFTISRDNAKNTVFLKMISLKPEDTAVYYCNAGSSWYYWRGYAYDYWGQGTQVSVSS	high polyreactivity
QVQLVESGGGLVQAGGSLRLSCAASGSTFTGNVMGWYRQAPGKERELVAAIDSGATTNYADSVKGRFTISRDNAKNTVYLQINSLKPEDTAVYYCATDGLDFWFIYDYWGQGTQVTVSS	low polyreactivity
QVQLVESGGGLVQAGGSLRLSCAASGRIFSRYVRGWYRQAPGKEREFVASITWSGSSTYYADSVKGRFTISRDNAKNTVYLQMNSLKPEDTAVYYCAALGLLSPSPWGTHISEYDSWGQGTQVTVSS	low polyreactivity
QVQLEESGGGLVQAGGSLRLSCAASGRTIIINTMGWYRQAPGKERELVAAISKNGATTNYADSLKGRFTISRDNAKNTVYLQMNSLKPEDTSVYYCNARYSGYLRLDYWGQGTQVNVSS	low polyreactivity
QVQHVESGGGLVQAGGSLRLSCAASGQIYNQNAMGWYRQAPGKERELVAAISYRGGSTYYADSVKGRFTISRDNAKNTVYLQMNSLKPEDTADYYCAAARSGSGGKQFDHGFNYWGQGTQVTVSS	high polyreactivity
